# T1: mouse CHL1 protein expressed on the surface of HEK293 cells transfected with mChl1 pIRES2-EGFP (mouse, UniProt P70232 26-1209)
# T1 construct: whole, on cells; also called CHL1 protein on cell surface; cell adhesion molecule L1-like
# T1 sequence (looked up): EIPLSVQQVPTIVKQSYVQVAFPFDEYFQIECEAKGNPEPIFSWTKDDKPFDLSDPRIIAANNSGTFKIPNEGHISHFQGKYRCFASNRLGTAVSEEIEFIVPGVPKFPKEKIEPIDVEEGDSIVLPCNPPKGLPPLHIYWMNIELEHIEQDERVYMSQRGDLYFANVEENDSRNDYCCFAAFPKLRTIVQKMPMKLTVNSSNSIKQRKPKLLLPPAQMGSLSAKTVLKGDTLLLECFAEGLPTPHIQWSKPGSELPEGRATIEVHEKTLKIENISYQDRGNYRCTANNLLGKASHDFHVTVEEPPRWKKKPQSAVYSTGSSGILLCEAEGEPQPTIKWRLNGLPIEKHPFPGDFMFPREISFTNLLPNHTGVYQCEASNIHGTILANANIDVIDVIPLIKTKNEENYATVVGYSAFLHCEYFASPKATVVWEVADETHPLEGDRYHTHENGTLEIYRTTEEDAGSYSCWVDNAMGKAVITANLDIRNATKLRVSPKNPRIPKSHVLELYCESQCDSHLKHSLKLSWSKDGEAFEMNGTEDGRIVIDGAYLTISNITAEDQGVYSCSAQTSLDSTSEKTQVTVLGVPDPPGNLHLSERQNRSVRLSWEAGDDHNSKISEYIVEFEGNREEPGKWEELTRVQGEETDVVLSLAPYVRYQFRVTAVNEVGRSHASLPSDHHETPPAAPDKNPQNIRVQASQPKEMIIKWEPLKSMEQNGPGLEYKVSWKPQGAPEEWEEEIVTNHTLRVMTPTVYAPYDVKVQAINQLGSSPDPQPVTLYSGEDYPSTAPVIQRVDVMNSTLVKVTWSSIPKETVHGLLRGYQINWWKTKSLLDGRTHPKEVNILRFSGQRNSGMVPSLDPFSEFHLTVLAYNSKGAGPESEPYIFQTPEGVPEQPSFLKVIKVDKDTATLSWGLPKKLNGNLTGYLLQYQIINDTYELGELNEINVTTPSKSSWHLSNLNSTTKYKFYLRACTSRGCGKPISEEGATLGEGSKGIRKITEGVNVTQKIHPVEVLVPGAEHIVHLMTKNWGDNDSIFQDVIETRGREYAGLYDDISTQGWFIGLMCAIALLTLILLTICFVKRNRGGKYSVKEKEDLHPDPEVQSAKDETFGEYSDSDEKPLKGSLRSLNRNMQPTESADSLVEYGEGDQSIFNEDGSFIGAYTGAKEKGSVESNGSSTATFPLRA
# Biological target: T1, mouse CHL1 protein expressed on the …
# Experiment: FACS: hybridoma culture supernatant on HEK293 cells transfected with mChl1 pIRES2-EGFP, detected with APC goat anti-rat IgG
# Description: Mouse CHL1 gene (mChl1) was cloned into pIRES2-EGFP vector by PCR using Phusion (Thermo Fisher Scientific Inc.: F530L). Y3Ag cells ([…]) were transfected with mChl1 pIRES2-EGFP by electroporation, and four 7-week-old female or male SD rats (CLEA Japan, Inc.) were immunized from their footpads and tail roots with a mixture of the cells with TiterMax Gold (Funakoshi Co., Ltd.: G-1X5). After 3 to 8 immunizations, inguinal lymph nodes or iliac lymph nodes were isolated, and their cells were fused with AG8 myeloma cells using PEG1500 (Roche: 10783641001). The obtained hybridomas were screened in HAT medium (DS Pharma Biomedical Co., Ltd.: 16-808-49) or HT medium (DS Pharma Biomedical Co., Ltd.: 16-809-49) under conditions supplemented with BM condimed H1 (Roche: 11088947001). The culture supernatants were collected and reacted with HEK293 cells transfected with mChl1 pIRES2-EGFP. Then, antibody titers in the supernatants were studied by FACS analysis using APC goat anti-Rat IgG (BioLegend, Inc.: 405407).
binder,measurement,value
"336 antibody, a monoclonal antibody to the CHL1 protein (antibody, V domains shown, Rat monoclonal antibody from SD rats immunized with Y3Ag cells expressing mouse CHL1; Used as hybridoma culture supernatant in the FACS screen, and as protein G-purified antibody from ascitic fluid in later work) VH: EVQLQQSGPELQRPGASVKLSCKASGYPFTEYYIYWMKQRPKQGLELIGRIDPEDGSTDYVEKFKNKATLTADTSSNTAYMQLSSLTSEDTATYFCARALQGFAYWGQGTLVTVSS VL: EIVLTQSPTTMAASPGEKVTLTCRASSSVSYMYWYLQKSGTSPKLWIYDTSRLASGIPDRFSGSGSGTSYSLTISSMETEDTATYYCQQGGSYPYTFGAGTKLELKR",binding result,binds
